Assay [1] deals with T1, ovine FAP (oFAP) extracellular domain (ECD) (sheep).
T1 construct: also called oFAP-ECD
T1 chain: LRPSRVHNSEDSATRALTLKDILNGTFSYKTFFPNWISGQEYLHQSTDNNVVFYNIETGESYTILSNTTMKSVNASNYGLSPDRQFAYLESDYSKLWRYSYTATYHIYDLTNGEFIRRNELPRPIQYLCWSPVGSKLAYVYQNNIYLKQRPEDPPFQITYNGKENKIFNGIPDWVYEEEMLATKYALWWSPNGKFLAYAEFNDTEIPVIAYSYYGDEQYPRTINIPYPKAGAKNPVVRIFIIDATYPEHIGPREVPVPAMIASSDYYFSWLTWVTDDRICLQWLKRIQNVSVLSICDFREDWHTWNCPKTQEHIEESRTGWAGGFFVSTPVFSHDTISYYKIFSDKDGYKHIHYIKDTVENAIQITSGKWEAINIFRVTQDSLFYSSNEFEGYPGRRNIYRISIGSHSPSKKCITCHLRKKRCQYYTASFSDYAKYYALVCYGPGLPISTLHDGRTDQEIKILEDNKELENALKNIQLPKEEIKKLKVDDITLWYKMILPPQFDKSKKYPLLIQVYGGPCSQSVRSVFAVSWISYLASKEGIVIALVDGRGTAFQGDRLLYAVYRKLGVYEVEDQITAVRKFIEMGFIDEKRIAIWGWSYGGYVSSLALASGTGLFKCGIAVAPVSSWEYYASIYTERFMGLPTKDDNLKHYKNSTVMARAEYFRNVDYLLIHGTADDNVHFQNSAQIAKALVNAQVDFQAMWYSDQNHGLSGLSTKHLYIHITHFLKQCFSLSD
In words: ELISA, 120 nM oFAP-ECD coated, antibody at 5 ug/mL. The protocol: Cross-reactivity of the anti-hFAP antibodies with oFAP-ECD and pFAP-ECD was tested using ELISA. 120 nM of oFAP-ECD or pFAP-ECD was coated on Maxisorp plates overnight at 4° C. […] Specifically, the C5 antibody was employed in IgG2a format, while all other antibodies, including the 7NP2 antibody, were in IgG1 format. The differences between the IgG2a and IgG1 formats are not expected to affect binding to FAP. After 3 washes with PBS, binding of the antibodies to oFAP-ECD and pFAP-ECD was detected using an anti-human or anti-murine antibody HRP conjugate.
On the technique in general: ELISA stands for enzyme-linked immunosorbent assay.

For assay [2], the target named is T2, human FAP expressed on transduced cells (SKRC52-hFAP, HT-1080-hFAP) (human, UniProt Q12884 1-760).
T2 construct: whole, on cells; Also the target in SKRC52-hFAP tumor cryosections and in tumors of tumor-bearing mice; also called cell-expressed human FAP
T2 sequence (looked up): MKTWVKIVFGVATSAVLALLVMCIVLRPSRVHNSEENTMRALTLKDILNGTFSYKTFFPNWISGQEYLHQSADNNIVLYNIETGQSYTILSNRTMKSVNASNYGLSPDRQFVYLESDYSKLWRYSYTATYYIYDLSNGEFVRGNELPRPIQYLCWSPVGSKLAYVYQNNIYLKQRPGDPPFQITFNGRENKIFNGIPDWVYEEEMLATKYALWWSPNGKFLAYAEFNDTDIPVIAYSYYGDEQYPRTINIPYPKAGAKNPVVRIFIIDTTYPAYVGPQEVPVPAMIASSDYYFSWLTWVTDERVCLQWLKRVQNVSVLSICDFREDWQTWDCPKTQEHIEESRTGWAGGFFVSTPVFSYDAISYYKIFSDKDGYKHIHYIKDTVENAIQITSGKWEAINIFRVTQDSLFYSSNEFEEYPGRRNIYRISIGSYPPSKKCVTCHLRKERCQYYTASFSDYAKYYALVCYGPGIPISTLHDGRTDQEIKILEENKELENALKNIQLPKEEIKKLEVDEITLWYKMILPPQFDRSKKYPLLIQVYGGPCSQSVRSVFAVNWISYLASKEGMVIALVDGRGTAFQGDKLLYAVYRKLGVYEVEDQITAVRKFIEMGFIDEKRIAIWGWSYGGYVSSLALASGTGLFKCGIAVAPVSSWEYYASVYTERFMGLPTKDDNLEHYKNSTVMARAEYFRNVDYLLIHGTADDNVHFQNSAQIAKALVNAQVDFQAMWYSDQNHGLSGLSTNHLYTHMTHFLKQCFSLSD
In words: immunofluorescence on SKRC52-hFAP tumor cryosections, FITC conjugate at 10 ug/mL. The protocol:
Immunofluorescence experiments were performed with 7NP2 and KSF (negative control), both in IgG1 format on cryosections of renal cell carcinoma SKRC52-hFAP tumor tissue slides, which were transduced to express human FAP. The 7NP2 and KSF IgG1 molecules were conjugated to FITC to allow detection. Cryostat sections (10 μm) were stained using the 7NP2 and KSF IgG1 conjugates at a final concentration of 10 μg/mL and detected with rabbit anti-FITC and goat anti-rabbit AlexaFluor488 antibody. Slides were mounted with fluorescent mounting medium and analyzed with a microscope (FIG. 5).

B1: anti-FAP antibody 7NP2 in IgG1 format (antibody, V domains shown)
VH: EVQLLESGGGLVQPGGSLRLSCAASGFTFSSYAMSWVRQAPGKGLEWVSAIGSVGGPTYYADSVKGRFTISRDNSKNTLYLQMNSLRAEDTAVYYCAKRLAWFDYWGQGTLVTVSS
VL: EIVLTQSPGTLSLSPGERATLSCRASQSVSSSYLAWYQQKPGQAPRLLIYGASSRATGIPDRFSGSGSGTDFTLTISRLEPEDFAVYYCQQSGKGPLTFGQGTKVEIKR
notes: also called 7NP2 IgG1; 7NP2(IgG1)
As to B1, the binding result in assay [1] and in assay [2] was “binds” each time.

Values taken from patent publication US20240199762A1 (PHILOGEN S P A, published 2024).
